The assay addresses T1, Ac-(NPNA)2-NH2 peptide (Plasmodium falciparum (synthetic repeat …)).
T1 construct: two NPNA repeats of the central repeat region of P. falciparum circumsporozoite protein (PfCSP); also called (NPNA)2 peptide; source: synthetic peptide, bought: InnoPep Inc. (>98% purity)
T1 chain: Ac-NPNANPNA-NH2
The assay can be described thus: ITC; MicroCal Auto-iTC200; peptide 134 uM in the syringe, Fab in the cell (9.2 uM Fab311, 9.6 uM Fab311R); Dulbecco's PBS; 25 °C; triplicate experiments, 16 injections. The note with it: both partners purified.

Where a chain is given by its changes, count along the chain named.

The text below walks through data of article PMC6179375 (Science Advances, 2018).

B1: Fab311 (Fab of monoclonal antibody mAb311) (Fab, V domains shown)
VH: QVQLVESGGGVVPPGRSLRLSCATSGFTFSNYGMHWVRQAPGKGLEWVAIIWYDGSRNFYAASVEGRFTISRDNSKNTLYLQMNSLRVEDTAVYYCARAAYYDTSGYGDYWGQGTLVTVSS
VL: QSVLTQPPSVSGAPGQTVTISCTGGSSNIGAGYDVHWYQQLPGTAPKLLIYGNINRPSGVPDRFSGSKSGTSASLAITGLQAEDEADYYCQSYDRRLSGSWVFGGGTKLTVL
notes: heavy chain of Fab311; cryo-EM models 6MHG and 6MB3 hold the variable domains only; germline IGHV3-33*01; light chain of Fab311; germline IGLV1-40*01; human antibody isolated from an RTS,S/AS01B vaccinee; source: FreeStyle 293-F cells, purified as previously described (15)
As to B1, binding was characterised by a dissociation constant (Kd) of 160 ± 7 nM and the “stoichiometry N” value turned out to be 1.19 ± 0.04.

B2: Fab311R (Fab311 inter-Fab contact residue reverted) (Fab, V domains shown)
VH: B1 VH with N31S, R57N, N58K, E65K
VL: B1 VL with R95S, R96S
notes: the PDB entries hold the parent Fab311; also called germline-reverted Fab311; source: FreeStyle 293-F cells
As for B2, the Kd is 135 ± 56 nM and the “stoichiometry N” value was found to be 1.21 ± 0.03.

What is called Kd is the concentration at which binding is half-saturated. High values mean lower affinity, low ones higher affinity. Broadly, the stoichiometry N is a count of units in the complex or per binding partner.
